Literature values as cited in paper PMC9502310.

Molecular target: IL-1β (Homo sapiens) (UniProt P01584)

## B15 (from UniProt P25212)
  Kd: 0.234 nM
